Stoichiometry N data for one substance are collected here from publication doi:10.1101/2024.09.19.613822.

The assay has as its target His-tagged proaerolysin (Aeromonas hydrophila) (UniProt P09167). In words: SEC. (In general: In gel filtration, larger molecules generally elute earlier.)

Substance “His-tagged proaerolysin (from UniProt P09167 24-445) (natural protein)” showed a stoichiometry N of 2.

Usually stoichiometry N stands for a count of units in the complex or per binding partner.
